Here are results for three molecules from publication PMC9455977, “Deciphering the Regulatory Circuits of RA3 Replication Module - Mechanisms of the Copy Number Control”.

What all share (settings): protein: recombinant; tags: N-terminal His6; chain copies: 2; label: none (ethidium bromide stain); blunt
Data set [1] addresses T1, RepA (His6-RepA) (plasmid RA3 (IncU, isolated from …, UniProt Q209K0 1-98)).
T1 sequence: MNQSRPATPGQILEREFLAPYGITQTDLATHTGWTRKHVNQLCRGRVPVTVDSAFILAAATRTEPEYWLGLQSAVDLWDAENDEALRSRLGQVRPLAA
Kind of data set: EMSA; bound at 0.1 uM RepA; 25 mM Tris-HCl pH 8.0, 5 mM MgCl2, 40 mM NaCl, 0.5 mg/mL BSA, 30 min at 37 C, 20 uL; 30 ng PCR fragment (0.8% agarose) or 150 ng ds oligo (10% native PAGE), 0.5x TBE. In general terms: In EMSA bound probe runs differently from free probe, usually more slowly.

For data set [2], the target named is T1, RepA (His6-RepA). Description: EMSA; no binding up to 4 uM RepA.
The target in data set [3] is T1, RepA (His6-RepA). Description: EMSA; no binding up to 4 uM RepA; 25 mM Tris-HCl pH 8.0, 5 mM MgCl2, 40 mM NaCl, 0.5 mg/mL BSA, 30 min at 37 C, 20 uL; 30 ng PCR fragment (0.8% agarose) or 150 ng ds oligo (10% native PAGE), 0.5x TBE.

B1: IR1 (dsDNA)
DNA 1: TTGAAGTTTACCAACTAGGTTACACTTCAA
DNA 2: TTGAAGTGTAACCTAGTTGGTAAACTTCAA
In the case of B1, the binding result in the data set with RepA (His6-RepA) [1] is “binds”.

B2: IR2* (dsDNA)
DNA 1: AAACAGTCGACTCTGATGAGGGC
DNA 2: GCCCTCATCAGAGTCGACTGTTT
With B2, the binding result in the data set with RepA (His6-RepA) [2] is listed as “no binding”.

B3: IR2 (dsDNA)
DNA 1: AAACACATCATTCTGATGAGGGC
DNA 2: GCCCTCATCAGAATGATGTGTTT
Take B3: in the data set with RepA (His6-RepA) [3], the binding result is on record as “no binding”.
